One molecule from patent publication US20060239990A1, “Protein Arginine N-Methyltransferase 2 (PRMT-2)” (priority 2003, published 2006) can be followed below.

One experiment deals with IκB-α. Kind of experiment: Co-immunoprecipitation with endogenous IκB-α in 293 cells. Format: binding, human. To be noted: HA-tagged constructs in 293 cells. The text has this: A polyclonal antibody to recombinant PRMT2 was used to examine the association between endogenous PRMT2 and IκB-α in vivo. […] The domain of IκB-α required for association with PRMT2 was mapped using in vivo immunoprecipitation assays where HA-tagged PRMT2 was coexpressed with truncation mutants of His-tagged IκB-α (FIG. 5B) in 293 cells. The ankyrin domain was both necessary and sufficient for this association (FIG. 5D, lanes 1 and 2). The domain of PRMT2 that interacted with endogenous IκB-α was mapped by immunoprecipitation following expression HA-tagged PRMT2 truncation mutants (FIG. 5C). […] When the ratios of PRMT2 or PRMT2-A binding to IκB-α were compared, both interacted with IκB-α with similar affinity.

For a further experiment, the system named is STAT3. Put plainly: STAT3 arginine methylation in transfected HEK293 cells. The class given is cell-based. To be noted: 24 hr after transfection, α-metR immunoblot. Here is the method: Vascular smooth muscle cells (VSMC) were prepared from the thoracic aorta of 12-week-old-male wild-type and PRMT-2^−/− mice by the explant method. Mouse embryo fibroblasts (MEFs) were prepared from 13.5-day wild-type and PRMT-2^−/− embryos. VSMCs and MEFs were cultured in Dulbecco's modified Eagle's medium (DMEM) containing 10% fetal calf serum (FCS) at 37° C. in a humidified atmosphere of 95% air-5% CO2. The integrity of PRMT-2 expression in the established VSMCs and MEFs lines was confirmed by Western and immunofluorescence analysis (data not shown). Quiescent VSMC (3-5th passages) that had been serum-starved for 48 hr were used in the following experiments. HEK293 cells were also grown in DMEM plus 10% FCS and were transiently transfected with FuGENE6 transfection reagent (Roche Applied Science, Indianapolis, Ind.) according to the manufacture's protocol. For each transfection, 2 μg of expression construct for mouse PRMT-2 and 8 μg for mouse STAT3 were used. After 24-48 hr of transfection, cells were used for the following experiments.
Immunoprecipitation of STAT3 was performed as follows. […]

IκB-α, sequence (P25963 whole entry, the tested form may be a part): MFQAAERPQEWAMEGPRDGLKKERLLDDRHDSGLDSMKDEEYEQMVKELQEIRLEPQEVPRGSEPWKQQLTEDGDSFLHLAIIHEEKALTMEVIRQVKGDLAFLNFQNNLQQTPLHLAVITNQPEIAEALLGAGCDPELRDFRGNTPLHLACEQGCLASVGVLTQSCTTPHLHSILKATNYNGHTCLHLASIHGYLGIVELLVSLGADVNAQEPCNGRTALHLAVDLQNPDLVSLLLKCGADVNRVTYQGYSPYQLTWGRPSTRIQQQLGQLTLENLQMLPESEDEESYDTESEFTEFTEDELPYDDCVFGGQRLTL

B1: PRMT2: human PRMT-2 polypeptide, SEQ ID NO:2, expressed from pVR1012 vector with HA-tag (protein, listed as Homo sapiens)
chain: MATSGDCPRSESQGEEPAECSEAGLLQEGVQPEEFVAIADYAATDETQLSFLRGEKILILRQTTADWWWGERAGCCGYIPANHVGKHVDEYDPEDTWQDEEYFGSYGTLKLHLEMLADQPRTTKYHSVILQNKESLTDKVILDVGCGTGIISLFCAHYARPRAVYAVEASEMAQHTGQLVLQNGFADIITVYQQKVEDVVLPEKVDVLVSEWMGTCLLFEFMIESILYARDAWLKEDGVIWPTMAALHLVPCSADKDYRSKVLFWDNAYEFNLSALKSLAVKEFFSKPKYNHILKPEDCLSEPCTILQLDMRTVQISDLETLRGELRFDIRKAGTLHGFTAWFSVHFQSLQEGQPPQVLSTGPFHPTTHWKQTLFMMDDPVPVHTGDVVTGSVVLQRNPVWRRHMSVALSWAVTSRQDPTSQKVGEKVFPIWR
modifications: HA tag
Turning to B1, the “association with endogenous IκB-α” value in the experiment on IκB-α was “interacted”. Besides, the Stat3 methylation result with STAT3 is “endogenous methylated STAT3 was detected”.
